According to publication PMC6211539, “Structures of collagen IV globular domains: insight into associated pathologies, folding and network assembly” (IUCrJ, 2018):
“And” between values parts separate entries of the source, which are not always exact repeats. Equal entries are not always repeated.

B1: noncollagenous C-terminal domain (NC1) of the collagen IV α2 chain, recombinant, from insect cells (domain or fragment, human)
chain: SVSIGYLLVKHSQTDQEPMCPVGMNKLWSGYSLLYFEGQEKAHNQDLGLAGSCLARFSTMPFLYCNPGDVCYYASRNDKSYWLSTTAPLPMMPVAEDEIKPYISRCSVCEAPAIAIAVHSQDVSIPHCPAGWRSLWIGYSFLMHTAAGDEGGGQSLVSPGSCLEDFRATPFIECNGGRGTCHYYANKYSFWLTTIPEQSFQGSPSADTLKAGLIRTHISRCQVCMKNL
notes: collagen IV α2 chain, human, NC1 domain; The construct has an N-terminal BM40 secretion peptide followed by the FLAG tag; Used for the α121NC1 crystals (expressed in insect cells); also called α2NC1; α2(IV)NC1
B2: noncollagenous C-terminal domain (NC1) of the collagen IV α2 chain, recombinant, from HEK293 cells (domain or fragment, human)
chain: B1 chain
notes: collagen IV α2 chain, human, NC1 domain; N-terminally FLAG-tagged fusion protein; Used for the α2NC1 crystals; also called α2NC1; α2NC1_(homo); source: HEK293 cells, purified as described elsewhere (Sado et al., 1998)
B3: noncollagenous C-terminal domain (NC1) of the collagen IV α1 chain, recombinant (domain or fragment, human)
chain: SVDHGFLVTRHSQTIDDPQCPSGTKILYHGYSLLYVQGNERAHGQDLGTAGSCLRKFSTMPFLFCNINNVCNFASRNDYSYWLSTPEPMPMSMAPITGENIRPFISRCAVCEAPAMVMAVHSQTIQIPPCPSGWSSLWIGYSFVMHTSAGAEGSGQALASPGSCLEEFRSAPFIECHGRGTCNYYANAYSFWLATIERSEMFKKPTPSTLKAGELRTHVSRCQVCMRRT
notes: collagen IV α1 chain, human, NC1 domain (about 230 C-terminal residues); The construct has an N-terminal BM40 secretion peptide followed by the FLAG tag; also called α1NC1; α1(IV)NC1
B4: noncollagenous C-terminal domain (NC1) of the collagen IV α5 chain, recombinant (domain or fragment, human)
chain: SVAHGFLITRHSQTTDAPQCPQGTLQVYEGFSLLYVQGNKRAHGQDLGTAGSCLRRFSTMPFMFCNINNVCNFASRNDYSYWLSTPEPMPMSMQPLKGQSIQPFISRCAVCEAPAVVIAVHSQTIQIPHCPQGWDSLWIGYSFMMHTSAGAEGSGQALASPGSCLEEFRSAPFIECHGRGTCNYYANSYSFWLATVDVSDMFSKPQSETLKAGDLRTRISRCQVCMKRT
notes: collagen IV α5 chain, human, NC1 domain; The construct has an N-terminal BM40 secretion peptide followed by the FLAG tag; also called α5NC1; α5(IV)NC1

Legend:
[1] = target: noncollagenous C-terminal domain (NC1) of the collagen IV α4 chain, recombinant (human) (UniProt P53420); assay: crystal structure; α4NC1 alone; sitting drop, 21°C; protein in 50 mM Tris-HCl pH 7.4, 0.15 M NaCl; 6% PEG 3350, 0.2 M Na acetate, 0.1 M MES pH 6.5
[2] = target: noncollagenous C-terminal domain (NC1) of the collagen IV α3 chain, recombinant (human) (UniProt Q01955); assay: crystal structure; α3NC1 alone; sitting drop, 21°C; protein in 50 mM Tris-HCl pH 7.4, 0.5 M NaCl; 16% PEG 3350, 0.2 M MgCl2, 0.1 M bis-tris propane pH 7.5
[3] = target: noncollagenous C-terminal domain (NC1) of the collagen IV α3 chain, recombinant (human) (UniProt Q01955); assay: SPR; Biacore T100; α3NC1 or α5NC1 amine-coupled to CM5 chip (~1000 RU); α3NC1 or α5NC1 flowed over; 25°C; 10 mM Tris-HCl pH 7.4, 0.15 M NaCl, 3 mM EDTA, 0.005% surfactant P20; self-association
[4] = target: B3; assay: crystal structure; 2:1 mixture (in terms of mass) of α1NC1 and α2NC1; sitting drop, 21°C; protein in 50 mM Tris-HCl pH 7.4, 0.15 M NaCl; 10% PEG 8000, 0.2 M Mg acetate; conditions: both partners purified
[5] = target: the molecule itself; assay: crystal structure; α2NC1 (from HEK293 cells) alone; sitting drop, 21°C; protein in 50 mM Tris-HCl pH 7.4, 0.15 M NaCl; 22% polyvinylpyrrolidone K15, 0.1 M Na2SO4, 0.1 M MES pH 6.5
[6] = target: B1; assay: crystal structure; 2:1 mixture (in terms of mass) of α1NC1 and α2NC1; sitting drop, 21°C; protein in 50 mM Tris-HCl pH 7.4, 0.15 M NaCl; 10% PEG 8000, 0.2 M Mg acetate; conditions: both partners purified
[7] = target: the molecule itself; assay: crystal structure; α1NC1 alone; sitting drop, 21°C; protein in 50 mM Tris-HCl pH 7.4, 0.15 M NaCl; 1.4 M Li2SO4, 0.1 M MES pH 6.5
[8] = target: the molecule itself; assay: SPR; Biacore T100; α3NC1 or α5NC1 amine-coupled to CM5 chip (~1000 RU); α3NC1 or α5NC1 flowed over; 25°C; 10 mM Tris-HCl pH 7.4, 0.15 M NaCl, 3 mM EDTA, 0.005% surfactant P20; self-association
[9] = target: the molecule itself; assay: crystal structure; crystals from a 1:1:1 mixture of α3NC1, α4NC1 and α5NC1; sitting drop, 21°C; protein in 50 mM Tris-HCl pH 7.4, 0.15 M NaCl; 20% PEG 8000, 0.2 M NaCl, 0.1 M CAPS pH 10.5

Molecule: noncollagenous C-terminal domain (NC1) of the collagen IV α4 chain, recombinant (from UniProt P53420 1461-1690) (domain or fragment)
- stoichiometry N [1]: 12 subunits

Molecule: noncollagenous C-terminal domain (NC1) of the collagen IV α3 chain, recombinant (from UniProt Q01955 1441-1670) (domain or fragment)
- stoichiometry N [2]: 6 subunits
- Kd [3]: 1.71 µM

Molecule: B1
- binding result [4]: binds

Molecule: B2
- stoichiometry N [5]: 8 subunits and 4 subunits

Molecule: B3
- stoichiometry N [6]: 2 α1NC1 per α2NC1
- stoichiometry N [7]: 6 subunits

Molecule: B4
- Kd [8]: 4.92 µM
- stoichiometry N [9]: 6 subunits
